Where “and” joins values, the source holds several entries; their conditions need not be identical. Identical values can stand only once.
Tests used:
TOX [1] = target: TOX (UniProt Q66JW3); experiment: anti-TOX IP from EL4 nuclear extract, LC-MS/MS, MiST vs IgG control
TOX [2] = target: TOX (UniProt Q66JW3); experiment: TOX co-IP from EL4 nuclear extract, LC-MS/MS, MiST
TOX [3] = target: TOX (UniProt Q66JW3); experiment: anti-TOX IP from EL4 nuclear extract, LC-MS/MS, MiST analysis

Chain of Tmem160 (Q9D938 97-188): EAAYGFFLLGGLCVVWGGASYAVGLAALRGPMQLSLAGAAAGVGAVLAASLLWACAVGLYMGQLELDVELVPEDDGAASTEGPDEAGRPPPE
Chain of Utp11l (Q9CZJ1 whole entry): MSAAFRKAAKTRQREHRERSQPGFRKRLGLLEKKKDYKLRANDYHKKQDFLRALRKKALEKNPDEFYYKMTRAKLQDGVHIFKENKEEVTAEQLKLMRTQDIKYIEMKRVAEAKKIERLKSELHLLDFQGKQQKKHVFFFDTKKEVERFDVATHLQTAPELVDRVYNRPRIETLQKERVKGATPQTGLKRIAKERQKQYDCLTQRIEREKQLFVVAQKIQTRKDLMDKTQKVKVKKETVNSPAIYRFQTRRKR
Chain of TOX (Q66JW3 whole entry): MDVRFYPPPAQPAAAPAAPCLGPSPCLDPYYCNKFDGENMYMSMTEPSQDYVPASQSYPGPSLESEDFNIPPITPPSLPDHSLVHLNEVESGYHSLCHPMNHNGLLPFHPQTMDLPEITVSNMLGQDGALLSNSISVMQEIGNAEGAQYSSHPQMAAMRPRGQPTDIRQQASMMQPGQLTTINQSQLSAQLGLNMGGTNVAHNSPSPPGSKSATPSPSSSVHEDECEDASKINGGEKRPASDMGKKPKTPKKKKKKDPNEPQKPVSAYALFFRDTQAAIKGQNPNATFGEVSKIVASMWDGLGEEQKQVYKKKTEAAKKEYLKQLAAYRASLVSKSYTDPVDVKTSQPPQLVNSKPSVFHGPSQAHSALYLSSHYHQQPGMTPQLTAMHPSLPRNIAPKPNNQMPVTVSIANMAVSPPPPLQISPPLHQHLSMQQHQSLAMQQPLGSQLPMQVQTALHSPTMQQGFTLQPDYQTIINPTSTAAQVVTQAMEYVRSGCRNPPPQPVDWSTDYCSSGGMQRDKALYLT

Substance	Abundance (TOX [2])	MiST Score (TOX [2])	Reproducibility (TOX [2])	Specificity (TOX [2])	Abundance (TOX [3])	MiST Score (TOX [3])	Reproducibility (TOX [3])	Specificity (TOX [3])	also measured
Abcf1 (from UniProt Q6P542 1-837)									Abundance (TOX [1]): 1.12e-05; MiST Score (TOX [1]): 0.76; Reproducibility (TOX [1]): 0.747; Specificity (TOX [1]): 0.773
Abcf2 (from UniProt Q99LE6 1-628)									Abundance (TOX [1]): 2.89e-05; MiST Score (TOX [1]): 0.756; Reproducibility (TOX [1]): 0.917; Specificity (TOX [1]): 0.69
Ap3m1 (from UniProt Q9JKC8 1-418)	1.64e-05	0.829	0.982	0.767					
Arhgef2 (from UniProt Q60875 1-985)	1.33e-05	0.847	0.943	0.811					
Atxn2 (from UniProt O70305 1-1285)	2.51e-06	0.831	0.831	0.838					
Ccnk (from UniProt O88874 1-554)	1.18e-05	0.846	0.975	0.795					
Cdc16 (from UniProt Q8R349 1-620)	4.84e-06	0.847	0.524	1					
Cnot1 (from UniProt Q6ZQ08 1-2375)	5.57e-07	0.85	0.931	0.821					
Copg1 (from UniProt Q9QZE5 1-874)	3.36e-06	0.844	0.514	1					
Cpt1a (from UniProt P97742 2-773)	7.71e-07	0.847	0.522	1					
Csrp1 (from UniProt P97315 1-193)	5.52e-05	0.828	0.966	0.773					
Ddx23	7.9e-06	0.836	0.837	0.843					
Dhx29 (from UniProt Q6PGC1 1-1365)	5.88e-07	0.847	0.928	0.818					
Dnajb6 (from UniProt O54946 1-365)	2.48e-05	0.837	0.944	0.796					
Dnajb11 (from UniProt Q99KV1 23-358)	2.91e-05	0.839	0.783	0.872					
Gm20517; Med20 (from UniProt Q9R0X0 1-212)	2.2e-05	0.831	0.472	1					
Gnl2 (from UniProt Q99LH1 1-728)	7.98e-06	0.843	0.894	0.827					
Hsd17b10 (from UniProt O08756 2-261)	1.27e-05	0.857	0.557	1					
Lsg1 (from UniProt Q3UM18 1-644)	2.9e-06	0.837	0.886	0.822					
Mark2 (from UniProt Q05512 1-776)	2.81e-06	0.842	0.891	0.826					
Mcm5 (from UniProt P49718 2-734)	4.18e-06	0.85	0.757	0.9					

Substance	Abundance (TOX [2])	MiST Score (TOX [2])	Reproducibility (TOX [2])	Specificity (TOX [2])	Abundance (TOX [3])	MiST Score (TOX [3])	Reproducibility (TOX [3])	Specificity (TOX [3])	also measured
Mrpl3 (from UniProt Q99N95 41-348)	7.04e-05	0.857	0.555	1					
Nob1 (from UniProt Q8BW10 1-403)	2.4e-05	0.84	0.955	0.796					
Nop2 (from UniProt Q922K7 1-793)	8.3e-05	0.844	0.981	0.789					
Nop14 (from UniProt Q8R3N1 1-860)	1.27e-06	0.84	0.501	1					
Nsf (from UniProt P46460 1-744)	2.87e-06	0.838	0.808	0.859					
Orc1 (from UniProt Q9Z1N2 1-840)	1.58e-06	0.843	0.866	0.839					
Orc3 (from UniProt Q9JK30 1-715)	7.41e-07	0.848	0.528	1					
Racgap1 (from UniProt Q9WVM1 1-628)					8.29e-06	0.793	0.868	0.765	
Rbm15 (from UniProt Q0VBL3 1-962)					8.04e-06	0.776	0.987	0.687	
Rbm28 (from UniProt Q8CGC6 2-750)	8.77e-06	0.855	0.958	0.815					
Rcc1 (from UniProt Q8VE37 2-421)					2.79e-05	0.796	0.986	0.717	
Rcc2 (from UniProt Q8BK67 1-520)					3.74e-05	0.79	0.958	0.722	
Rrbp1 (from UniProt Q99PL5 1-1605)	1.36e-06	0.834	0.675	0.913					
Samd1 (from UniProt D3YXK1 1-519)	2.47e-06	0.829	0.886	0.811					
Sin3a (from UniProt Q60520 1-1274)					5.49e-06	0.773	0.284	1	
Skap2 (from UniProt Q3UND0 1-358)	4.76e-06	0.845	0.516	1					
Slc25a3 (from UniProt Q8VEM8 46-357)					6.71e-05	0.778	0.975	0.696	
Slc25a4 (from UniProt P48962 2-298)					0.000186	0.765	0.959	0.684	
Slc25a11 (from UniProt Q9CR62 2-314)					2.29e-05	0.788	0.956	0.72	
Smarca4 (from UniProt Q3TKT4 1-1613) (enzyme)					6.52e-07	0.786	0.594	0.879	
Sorbs1 (from UniProt Q62417 1-1290)	1.52e-05	0.829	0.997	0.76					

Substance	Abundance (TOX [2])	MiST Score (TOX [2])	Reproducibility (TOX [2])	Specificity (TOX [2])	Abundance (TOX [3])	MiST Score (TOX [3])	Reproducibility (TOX [3])	Specificity (TOX [3])	also measured
Sptbn1 (from UniProt Q62261 2-2363)	1.19e-05 and 1.09e-05	0.84	0.996	0.777					
Srp72					3.55e-05	0.765	0.872	0.723	
Srrm2 (from UniProt Q8BTI8 1-2703)					1.1e-06	0.769	0.861	0.734	
Sugp1 (from UniProt Q8CH02 1-643)	7.71e-06	0.832	0.906	0.807					
Tcof1 (from UniProt O08784 1-1320)					0.000142	0.77	0.984	0.681	
Terf2 (from UniProt O35144 1-541)					6.86e-06	0.79	0.994	0.705	
Thoc1 (from UniProt Q8R3N6 1-657)					9.29e-06	0.775	0.999	0.681	
Tmem160	3.49e-05	0.846	0.94	0.812					
Tmem214 (from UniProt Q8BM55 2-687)	1.26e-06	0.85	0.532	1					
Trrap (from UniProt Q80YV3 1-2565)	9.36e-08	0.847	0.524	1					
Umps (from UniProt P13439 1-481) (enzyme)					2.41e-06	0.766	0.792	0.761	
Usp10 (from UniProt P52479 2-792) (enzyme)					3.26e-06	0.793	0.613	0.881	
Utp11l	4.22e-05	0.856	0.553	1					
Wdr36					3.46e-06	0.785	0.886	0.747	
Wdr82 (from UniProt Q8BFQ4 1-313)	0.00013	0.846	0.951	0.807					
Xrcc5 (from UniProt P27641 1-732)					2.92e-05	0.775	0.737	0.799	
Xrn2 (from UniProt Q9DBR1 1-951) (enzyme)					8.55e-06	0.787	0.804	0.787	
Ywhah (from UniProt P68510 2-246)					6.28e-05	0.774	0.819	0.761	
Zcchc8 (from UniProt Q9CYA6 2-709)	2.87e-06	0.834	0.483	1					
Zmym4 (from UniProt A2A791 2-1549)	1.92e-06	0.841	0.503	1					
Zw10 (from UniProt O54692 2-779)					2.83e-06	0.767	0.582	0.857	
